Data: US20190248902A1 (published 2019)

T1: recombinant, soluble human ASGR-1 (human, UniProt P07306 62-291)
T1 construct: biotinylated in the binning assay; also called soluble huASGR-1; Soluble ASGR-1 (Amgen)
T1 sequence: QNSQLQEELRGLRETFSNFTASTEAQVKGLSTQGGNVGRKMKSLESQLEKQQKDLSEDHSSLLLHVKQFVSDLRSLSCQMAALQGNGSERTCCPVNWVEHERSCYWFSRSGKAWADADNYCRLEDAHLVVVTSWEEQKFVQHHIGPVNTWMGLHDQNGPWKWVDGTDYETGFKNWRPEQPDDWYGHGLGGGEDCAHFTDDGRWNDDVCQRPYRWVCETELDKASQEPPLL

B1: 147D10 (antibody, V domains shown)
VH: EVQLLESGGGLVQPGGSLRLSCAASGFTFSSYAMSWVRQAPGKGLEWVSAISGRGGNTFYADSVKGRFTISRDNSKNTLYLQMNSLRAEDTAVYYCAKKDYDYVWGSPYFDYWGQGTLVTVSS
VL: DIQMTQSPASVSASVGDRVTITCRASQNISNWLTWYQQKPGKAPKLLIYAASSLQSGVPSRFSGSGSGTDFTLSISSLQPEDFATYYCQQTDSFPFTFGPGTKVDVK
notes: hybridoma mAb
B2: 149F8 (antibody, V domains shown)
VH: EVQLLESGGGLVQPGGSLRLSCAASGFTFSSYAMSWVRQAPGKGLEWVSAISGRGGNTFYADSVKGRFTISRDNSKNTLYLQMNSLRAEDTAVYYCAKKDYDYVWGSPYFDYWGQGTLVTVSS
VL: DIQMTQSPASVSASVGDRVTITCRASQGISNWLAWYQQKPGKAPKLLIYAASSLQSGVPSRFSGNESGTDFTLSISSLQPEDFAIYYCQQTDSFPFTFGPGTKVDVK
notes: hybridoma mAb
B3: 149D11 (antibody, V domains shown)
VH: EVQLLESGGGLVQPGGSLRLSCAASGFTFSSYAMSWVRQAPGKGLEWVSAISGRGGNTFYADSVKGRFTISRDNSKNTLYRQMNSLRAEDTAVYYCAKKDYDYVWGSPYFDYWGQGTLVTVSS
VL: DIQMTQSPASVSASVGDRVTITCRASQNISNWLTWYQQKPGKAPKLLIYAASSLQSGVPSRFSGSGSGTDFTLSISSLQPEDFATYYCQQTDSFPFTFGPGTKVDVK
notes: hybridoma mAb
B4: 194A4 (antibody, V domains shown)
VH: QVQLVQSGTEVKKPGASLKVSCKASGYTFTVYYLNWVRQAPGQGLEWMGWINPNSGGTNYAQKFQGRVTMTRDTSISTAYMELSRLRSDDTAVYYCARGYDILTGWGQGTLVTVSS
VL: EIVLTQSPGTLSLSPGERATLSCRASRGVSNIYLAWYQQKPGQAPRLLIYGASNRATGIPDRFSGSGSGTDFTLTISRLEPEDFAVYYCQHNDYSMFTFGPGTKVDIK
notes: hybridoma mAb
B5: 208A2 (antibody, V domains shown)
VH: QVQLQESGPGLVKPSETLSLNCTVSGGSIRSYYWSWIRQPAGKGLEWIGRIYTSGSTDYNPSLKSRITMSVDTSKNQFSLKLSSVTAADTAVYYCARGFGDWDYWGQGTLVTVSS
VL: DIQMTQSPSSLSASVGDRVTITCRTSQGIRNDLGWYQQQPGKTPKRLIYAASSLLSGVPSRFSGSRSGTDFTLTISSLQPEDFATYYCLQYNSYPPTFGQGTRLEIK
notes: hybridoma mAb
B6: 210G10 (antibody, V domains shown)
VH: QVQLQESGPGLVKPSETLSLNCTVSGGSIRSYYWSWIRQPAGKGLEWIGRIYTSGSTDYNPSLKSRITMSVDTSKNQFSLKLSSVTAADTAVYYCARGFGDWDYWGQGTLVTVSS
VL: DIQMTQSPSSLSASVGDRVTITFRTSQGIRNDLGWYQQQPGKTPKRMIYAASSLFSGVPSRFSGSRSGTDFTLTISSLQPEDFATYYCLQYNSYPPTFGQGTRLEIK
notes: hybridoma mAb
B7: 48B12 (antibody, V domains shown)
VH: EVQLLESGGGLVQPGGSLRLSCAASGFTFSSYAMNWVRQAPGKGLEWVSAISGRGGNTFYADSVKGRFTISRDNSKNTLYLQMNSLRAEDTAVYYCAKRETYNWNYEGFDYWGQGTLVTVSS
VL: SYELTQPPSVSVSPGQTARITCSGDALPKKYAYWYQQKSGQAPVLVIYEDSKRPSGIPERFSGSSSGTMATLTISGAQVEDEADYYCNSTDSSGNHVVFGGGTKLTVL
notes: hybridoma mAb
B8: 64G12 (antibody, V domains shown)
VH: EVQLLESGGGLVQPGGSLRLSCAASGFTFSSNAMSWVRQAPGKGLEWVSVISGSGGSTYYADSVKGRFTISRDNSKNTLYLQMNSLRAEDTALYYCAKRNYDDAFDIWGQGTMVTVSS
VL: DIQMTQSPSSVSASVGDRVTITCRASQNITTWLAWYQQKPGKAPKLLISAASSLQSGVPSRFSGSGSGTDFTLTISSLQPEDFATYICQQANSFPFTFGPGTKLDIK
notes: hybridoma mAb
B9: 184E7 (antibody, V domains shown)
VH: QVQLVQSGAEVKTPGASVKVSCRASGYTFTSYNMHWVRQVPGQGLEWMGWINPNNGGSNYTQKFQGRVTMTRDTSISTAYMELSRLRSDDTAVYYCARKFGDWGQGTLVTVSS
VL: DIQMTQSPSSRSASIGERVTITCRASQGISNYLAWIQQKPGTAPKSLIYAASSLQSGVSSRFSGSGFGTDFTITISSVQREDFATYYCQQYNGYPFTFGHGTKVDIK
notes: hybridoma mAb
B10: 4B1 (antibody, V domains shown)
VH: QVQLQESGPGLVKPSETLSLTCSVSGDSISSYSWSWIRQPAGKGLEWIGRIYTSGSTNYIPSLKSRITMSVDTSKKQFSLKLSSVTAADTAVYYCARDLKSSGCLFFDYWGQGTLVTVSS
VL: DIQMTQSPSSLSASVGDRVTITCRASHTIRTYLNWYQQKPGKAPKLLIYAASSLQSGVPSRINGSGSGTDFTLTITNLQPEDFATYYCQQSYNISFTFGPGTKVDIK
notes: hybridoma mAb
B11: 6G7 (antibody, V domains shown)
VH: QVQLVESGGGVVQPGRSLRLSCAASGFTFSSYGMHWVRQTPGKGLEWVAIISYVGKNKYYADSVKGRFTISRDNSKNTLYLQMNSLRAEDTAVYYCARRGNSYGGYGMDVWGQGTTVTVSS
VL: DIQMTQSPSSRSASVGDRVTITCQASQDISNYLNWCQQKPGKALKLLIYDASTLETGVPSRFSGSGSGTDFTFTISSVQPEDIATYYCQQYDNVPITFGQGTRLEIK
notes: hybridoma mAb
B12: 62H10 (antibody, V domains shown)
VH: EVQLVESGGGLVKPGGSLRLSCAASGFTFSSYSMNWVRQAPGKGLEWVSSISSSSSYIYYADSVKGRFTISRDNAKNSLYLQMNSLRAEDTAVYYCARGGSRGFDPWGQGTLVTVSS
VL: DIQMTQSPSSLSASVGDRVTITCRASQSITSYLNWYQQKPGKVPKLLISTASSLQSGVPSRFSGSGSGTDFTLTISSLQPEDFATYYCQQSHSFPFTFGPGTNVDFK
notes: hybridoma mAb
B13: 9G9 (antibody, V domains shown)
VH: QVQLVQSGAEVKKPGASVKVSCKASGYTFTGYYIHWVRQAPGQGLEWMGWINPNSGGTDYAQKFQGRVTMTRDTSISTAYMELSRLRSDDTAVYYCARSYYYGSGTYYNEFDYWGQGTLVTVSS
VL: QSVLTQPPSASGTPGQRVNMSCSGTNSNIGSYTVNWYQQLPGTAPKLLIYINNQRPSGVPDRFSGSKSGTSASLAISGLQSEDEADYYCAAWDDSLNGHVVFGGRTKLTVL
notes: hybridoma mAb
B14: 147E9 (antibody, V domains shown)
VH: EVQLVESGGGLVQPGGSLRLSCAASGFTFSSYSMNWVRQAPGKGLEWVSSISGRNTTIYYADSVKGRFTISRDNAKNSLYLQMNSLRDEDTAVYYCSRDRGSCWGQGTLVTVSS
VL: DIQMTQSPSSLSASVGDRVTITCRASQDINNYLAWFQQKPGKAPKSLIVAASSLQSGVPSKFSGSGSGTDFTLTISSLQPEDFATYYCQQYNSYPLTFGGGTKVEIK
notes: hybridoma mAb
B15: 7F4 (antibody, V domains shown)
VH: QLQLQESGPGLVKPSETLSLTCTVSGGSISRSSYYWGWIRQPPGKGLEWIGNIYYSGATYYNPSLKSRVTISVDTSTNQFSLKLSSVTAADTAVYYCARHSGSWSLDYWGQGTLVTVSS
VL: DIQMTQSPSSLSASVGDRVTITCRTSQGIRNDLGWYQQKPGKAPKRLIYAASNLQSGVPSRFSGSGSGTEFTLTISSLQPEDFATYYCLQHSAYPLTFGGGTKVEIK
notes: hybridoma mAb
B16: 52H2 (antibody, V domains shown)
VH: EVQLLESGGGLVQPGGSLRLSCAASGFTFSRNAMSWVRQAPGMGLEWVSAISGRGGNTFYADSVKGRFTVSRDNSKNTLFLQMNSLRAEDTAVYYCAKNGREQWLDYWGQGTLVTVSS
VL: DIQMTQSPSSVSASVGDRVTITCRASQNITNWLAWFQQKPGRAPKLLIYTTSSLQSGVPSRFSGSGSGTDFTLTISSLQPEDFATYCCQQTNSFPWTFGHGTKVEVK
notes: hybridoma mAb
B17: 72F5 (antibody, V domains shown)
VH: EVQLLESGGGLVQPGGSLRLSCAASGFTFSSYAMIWVRQAPGKGLEWVSTISGSGGYTYSADSVKGRFTISRDNSKNTLYLQMNSLRAEDTAVYYCARRIAVTGTEWYDPWGQGTLVTVSS
VL: DIQMTQSPSSLSASVGDRVIIPCRASQNISSYLNWYQQKPGKAPKLLIYAASSLQSGVPSRFSGSGSGTDFTLTISSLQPEDFATYSCQQTYSTPTFGQGTRLDIN
notes: hybridoma mAb

What was measured:
[1] = target: T1, recombinant, soluble human ASGR-1; assay: Octet BLI dissociation, pH 5.6 plus calcium
In short: (§1)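 Antibodies were captured on anti-human Fc biosensors, and soluble ASGR-1 (6 ug/ml) was associated for 2 min in Tris buffer containing 1 mM CaCl2 at pH 7.4, followed by 10 min dissociation under each test condition. The signal at the end of association was set as 100%. Percent ASGR-1 still bound after 1 min of dissociation was compared with the pH 7.4 plus calcium control, and >10% extra dissociation was scored as sensitive.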

[2] = target: T1, recombinant, soluble human ASGR-1; assay: Octet BLI dissociation, pH 5.6 minus calcium
In short: as §1

[3] = target: T1, recombinant, soluble human ASGR-1; assay: Octet BLI dissociation, pH 7.4 minus calcium
In short: as §1

| % Change Compared to pH 7.4 + Calcium [1] | % Change Compared to pH 7.4 + Calcium [2] | % Change Compared to pH 7.4 + Calcium [3] | Binder |
| --- | --- | --- | --- |
| 4% | 11% | 13% | B1 |
| -8% | -1% | 1% | B2 |
| 3% | 11% | 11% | B3 |
| -7% | -3% | -1% | B4 |
| -10% | -5% | -4% | B5 |
| -10% | -5% | -3% | B6 |
| -6% | 0% | 4% | B7 |
| 10% | 24% | 24% | B8 |
| -9% | -3% | 1% | B9 |
| -5% | -2% | 6% | B10 |
| 4% | 16% | 8% | B11 |
| -2% | 14% | 13% | B12 |
| 38% | 55% | 25% | B13 |
| -4% | 20% | 5% | B14 |
| 6% | 9% | 4% | B15 |
| 11% | 32% | 26% | B16 |
| 20% | 30% | 64% | B17 |
